# In paper PMC9523724:
# Molecular target: commercial orange peel PME (pectin methylesterase, Sigma p5400) (orange (peel))
substance,measurement,value
recombinant MePMEI1 protein (pectin methylesterase inhibitor 1 of Manihot esculenta) (natural protein),"relative activity of MePMEI1 (loss of PME activity with MePMEI1 against the initial PME activity) at pH 4.5, 5.5, 6.5, 7.5 and 8.5; highest at pH 5.5, falling with rising pH",31%
